For this assay, the target named is TRPA1 tagged with V5 and 6x histidine in the C terminus (UniProt Q8BLA8). Description: pull-down; nickel bead (Ni-NTA) pull-down of TRPA1-V5-His from HEK293 cells; IQGAP1 detected with anti-IQGAP1; cells untreated or treated with AITC (400 uM), AITC with HC-030031 (10 uM), AITC in Ca2+-free solution, or forskolin.

Experimental findings from publication PMC10232262 are described below.

UniProt Q8BLA8, sequence (Q8BLA8 whole entry): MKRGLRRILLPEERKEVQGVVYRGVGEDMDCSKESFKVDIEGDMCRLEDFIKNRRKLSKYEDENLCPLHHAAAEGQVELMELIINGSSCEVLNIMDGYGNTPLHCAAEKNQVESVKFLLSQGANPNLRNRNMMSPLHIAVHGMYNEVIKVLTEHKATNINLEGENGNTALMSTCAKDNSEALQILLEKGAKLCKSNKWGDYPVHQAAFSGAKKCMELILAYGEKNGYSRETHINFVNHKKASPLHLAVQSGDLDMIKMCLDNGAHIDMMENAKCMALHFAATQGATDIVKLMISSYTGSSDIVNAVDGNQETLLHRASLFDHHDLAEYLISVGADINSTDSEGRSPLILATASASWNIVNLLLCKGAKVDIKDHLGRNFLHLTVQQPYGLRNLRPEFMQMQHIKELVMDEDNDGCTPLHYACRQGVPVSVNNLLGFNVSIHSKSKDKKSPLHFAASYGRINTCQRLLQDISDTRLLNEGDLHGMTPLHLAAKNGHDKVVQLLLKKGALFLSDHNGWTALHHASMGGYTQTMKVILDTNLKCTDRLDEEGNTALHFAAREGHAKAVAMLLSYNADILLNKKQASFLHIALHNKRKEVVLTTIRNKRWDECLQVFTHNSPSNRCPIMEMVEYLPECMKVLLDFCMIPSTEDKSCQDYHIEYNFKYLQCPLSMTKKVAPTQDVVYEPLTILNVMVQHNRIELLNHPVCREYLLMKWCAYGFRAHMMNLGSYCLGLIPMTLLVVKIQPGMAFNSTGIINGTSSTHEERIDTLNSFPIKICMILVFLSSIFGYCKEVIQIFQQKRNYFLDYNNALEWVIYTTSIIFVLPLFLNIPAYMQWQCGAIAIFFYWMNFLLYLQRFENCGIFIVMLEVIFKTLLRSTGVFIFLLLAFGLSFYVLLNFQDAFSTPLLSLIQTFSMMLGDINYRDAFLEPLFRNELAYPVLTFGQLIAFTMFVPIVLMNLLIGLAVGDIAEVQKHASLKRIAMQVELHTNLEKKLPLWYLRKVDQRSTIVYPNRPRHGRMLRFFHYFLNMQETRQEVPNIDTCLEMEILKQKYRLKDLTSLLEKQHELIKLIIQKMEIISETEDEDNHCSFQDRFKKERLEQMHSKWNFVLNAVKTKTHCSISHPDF

With “Cdc42 binding region (M1054-K1077) deleted IQGAP1 (from UniProt P46940 1-1657) (natural protein)”, the relative band density (basal, against wild-type IQGAP1 basal = 1.0) (relative to the first band) was determined as 0.53. In turn, “IQ motif (L700-Q905) deleted IQGAP1 (from UniProt P46940 1-1657) (natural protein)” showed a relative band density (basal, against wild-type IQGAP1 basal = 1.0) (relative to the first band) of 1.61.
